Results as given in the DeepSol protein solubility set.

Experiment: soluble on expression in E. coli; label from the status in PepcDB or PDB records

Sequence | soluble on expression in E. coli
GMKFNEFLNNLSNYEPGKDIEVIAKEYGVKEVIKLASNENPFGTPPKAIECLRQNANKAHLYPDDSMIELKSTLAQKYKVQNENIIIGAGSDQVIEFAIHSKLNSKNAFLQAGVTFAMYEIYAKQCGAKCYKTQSITHNLDEFKKLYETHKDEIKLIFLCLPNNPLGECLDASEATEFIKGVNEDCLVVIDAAYNEFASFKDSKKHLEPCELIKEFDNVLYLGTFSKLYGLGGLRIGYGIANANIISAFYKLRAPFNVSNLALKAAVAAMDDDEFTEKTLENNFSQMELYKEFAKKHNIKIIDSYTNFITYFFDEKNSTDLSEKLLKKGIIIRNLKSYGLNAIRITIGTSYENEKFFTEFDKILR | soluble
MINNDLLRRISNIFDLTDETILTTFALSQCEISAEQLTNFFKEKDDTAYQPLEDVQFASFLNGLIIAKRGPSDGPERPVEEELTNNMIFNKVKIALSLKAEEVIATLELADLSLGKYELSAFFRNVNNKHYKDCSDEVLSAFLKGLKIKSK | not soluble
GVLAPVVPGKALEFPQDFGAHNDFRIEWWYVTGWLETPTGKPLGFQITFFRTATEIDRDNPSHFAPDQLIIAHVALSDPAIGKLQHDQKIARAGFDLAYARTGNTDVKLDDWIFVRETDGRYRTRIEAEDFTLTFILTPSQPLMLQGENGFSRKGPGAPQASYYYSEPHLQVSGIINRQGEDIPVTGTAWLDREWSSEYLDPNAAGWDWISANLDDGSALMAFQIRGKDDSKIWAYAALRDASGHTRLFTPDQVSFHPIRTWRSARTQAVYPVATRVLTGETEWQITPLMDDQELDSRASAGAVYWEGAVTFTRDGQPAGRGYMELTGYVRPLSM | soluble
MGHHHHHHSHKLEEAYEPNQVAISLIGEPTLYPMLPELIEEYKKRGFTTFLVTNGTNPDMLEKVKPTQLYLSLTAFDEDSHLVLNRPGKSNWERVLRSLEVMRDSGSRTVIRLTLIRGYNMDEEAIRKYSELIEMAEPDFIEAKAYMYLGYSRLRLRWGNMPEHADIVEFSRKLADSTGYEVKRESEPSRVVL | not soluble
MDFGALPPEINSTRMYAGAGAAPLMAAGATWNGLAVELSTTASSVESVIMQLTTEQWLGPASMSMVVAAQPYLAWLTYTAESAAHAAAQAMASAAAFEAAFAMTVPPAEVAANRALLAALVATNVLGQNTPAIMATEAHYGEMWAQDALAMYGYAASSAAAGRLNPLITPSQTANMAGLAGQAAAVSHAAAASTVQQVGLGSLISNLPNAVMGFASPLTSAADAAGLGGIIQDIEELLGITFVQNAINGAVNTTAWFVMATIPNAVFLGHAFAALNPATVTAAADAVPAAAAAAGLAHTVTPVGVGGASLTASLGEASSVGGLSVPAGWSTAAPAMTSGTTALEGSGWAVPEEAGPVAAMPGMAGISGAAKGAGAYAGPRYGFKPIVMPKQVVV | not soluble
MEIIGGKEVSPHSRPFMASIQYGGHHVCGGVLIDPQWVLTAAHCQYRFTKGQSPTVVLGAHSLSKNEASKQTLEIKKFIPFSRVTSDPQSNDIMLVKLQTAAKLNKHVKMLHIRSKTSLRSGTKCKVTGWGATDPDSLRPSDTLREVTVTVLSRKLCNSQSYYNGDPFITKDMVCAGDAKGQKDSCKGDAGGPLICKGVFHAIVSGGHECGVATKPGIYTLLTKKYQTWIKSNLVPPHTN | soluble
MSLIYTGRPMLGTERIRGLTIKIFLPLMELLGRVMGVGREEVRHSFIKVNNELVRSRGGRYTPDELLILVPHCLQSSRCEIRLTYDMNHCKRCGKCPIRDLLALRDRYGVSLAIATGGTIARRIVVQTRPKLIIAVACERDLASGIQDTHPIPVYGVLNERPNGPCLDTLVPMQRLEAALRHFLRDVPVSAGGAPDESRRGRDAAAAFGKAQGPECRVTQGSSQRRGSDGEGHHHHHH | not soluble
PELADPTPYDIFGIPKAGSGNPKLDKKSLKKKYHRYVKLYHPDHSDNIQIFSSEKVTNSDSKSPLLLTSSEKLHRFKVISQAYDILCDPKKKIVYDTTRQGW | not soluble
MARIGIRYAEYSAMTVLRYLQAYPPHLQAQVRQMIDSDRLGEYLQRRYPDRHDVQSDKALYGYAQDLRQQYLRSAPNLDKVLFDSRLDLTHRALGLNTAVSRVQGGKLKAKKEIRIASLFKEAAPQFLRMIVVHELAHLRERDHNKAFYQLCQHMEPDYHQLEFDLRVYLTYRELPGNLLEHHHHHH | not soluble
MSLNMKTFKFFTALFATAILTACTLDMERPTNVQYIDKTDAIWQQHLQKIQKIQSYQAKGQIGYISPTERFSSRFEWQYQNPKSYTLKLYSLISKSTLWIQMHQSGMTISDNNGNQQSAANSKLLLQEIIGMDVPLEHLAYWLKGQPAMNADYQVGTNHLLGAFTYHVDGSQWTADYLTYHSNNSMPENILLKNDSTKQTLKIRVDEWIYEGGSHHHHHH | soluble
MAHHHHHHMAASYLVLQRYTDLINSGDLDAAFNYLSEDIIYVTWLGVIEGKDNVVTFLRDNMRFLHFAKHFNRWRQVQHCLDADLSRHCDDSDVGGSNLFDRDGYDRQGYASFERDGMIANIVKLSMQKTRVRETVVIRDNKVVLVTLMEQL | not soluble
LGRLFGTDGVRGVANLELTAELAYKLGQAGAYVLTSETKHTPKILVGMDTRISGDMLEASLVAGLCSVGAEVACLGIAPTPTVAYLTRYYNADAGVVISASHNPYEFNGIKFFNSKGYKLSDALEERIESIILDNSEKIQLPTGEKIGRKIEIESPLDDYVNFIKSTIKGDLKGLKVAIDCANGASYQVAPVTFFELGADVCVINNEPDGVNINKDCGSTHIEQLQKFVIESGADVGLAFDGDADRVLAVDENGNMVDGDQIMAIIGLELKKQGKLTNNTIVATVMSNLGLDIMAKREGINIVKTKVGDRYVLENMLENGHVLGGEQSGHIIFLEHSTTGDGILTGAQLLNVVKSSGKKLSELASIMQVLPQVLMNARVSNQNKEKYLEDEVICEMCKELENEFRDEGRVLIRPSGTEPLVRVMIEGKDRDYIEKRALELVKVIEERLG | soluble
MGSDKIHHHHHHMEYATLGNSGVEVSEVGFGAWVVGTDWWGDRTRDDAIDMVQHALDEDVTFFDTGDVYGHGDSEEIIGEALAEHRDEVTVSTKIGYDFYNNPQAGHGELPKKVTPEWVHTAVDRSLDRLGMDHVELLMLHNANVDEVDEDVLEALDELREEGKVDAIGWALGPSIGWLAEGDAAVANEFDALQTVFNLFEQTPGQHFIDTIREQNADTSVLARVPHSSGLLNEQVTPETELGKGDHRSHRPSEWYETGWEKVEEIRFLERDGARTMGQAAIQWLLYNDEVASVTPTFRTNADIDEWAGAPDTPPLSDEEYDRVQELYRDNFGIDRDDGMDALRSSVGGADLEETGMKSAGD | not soluble
MFRVGILTVSDKGFRGERQDTTHLAIREVLAGGPFEVAAYELVPDEPPMIKKVLRLWADREGLDLILTNGGTGLAPRDRTPEATRELLDREVPGLAELMRLVGLRKTPMAALSRGVAGVRGRTLILNLPGSPKGARESLEAVLPVLPHALSLVTGKPWKEGHHE | soluble
MSLKHHGKIKIKHAVKVLKVSRSGFYEYMHRRPSKQQVEREILSEKIKAVFHEHKGRYGAVRITKVLHNTGIMTNTKRVGKLMHLMGLYAKGSRYKYKHYNRKGASLSRPNLINQIFKATAPNKVWLGDMTYIPTKEGTLYLAVNIDVFSRKIVGWSMSSRMQDKLVRDCFLQACGKEHPQPGLIVHTDQGSQYTSSRYQSTLRQVGAQSSMSRKGNPYDNAMMESFYKTLKRELINDAHFETRAEATQEIFKYIETYYNTKRMHSGLDYKSPKDFEKYNSEGHHHHHH | not soluble
TEQKQKHMEQLSDKNGIISALAFDQRGALKRLMAKYQSEEPTVSQIEALKVLVAEELTPYASSMLLDPEYGLPATKVLDDNAGLLLAYEKTGYDTSSTKRLPDCLDIWSAKRIKEEGADAVKFLLYYDVDSSDEVNEEKEAYIERIGSECVAEDIPFFLEILSYDEKITDSSGIEYAKIKPRKVIEAMKVFSNPRFNIDVLKVEVPVNMDYVEGFAQGETAYNKATAAAYFREQDQATLLPYIFLSAGVPAQLFQETLVFAKEAGAKFNGVLCGRATWAGSVKEYVEKGEAGARQWLRTIGFQNIDELNKILQKTATSWKE | soluble
DMRVVSVNPAARRLLDLPDDYIPIERPLEEVCAKIPFGPDELGEGESRTWRLPTAEVRRITRMRFFDRSFSRLFFSIETLTEELHSAEKEAYEKLIRLIAHEVNNSTAGIIGVLNAVGDAFDDTPHTPEGEVSEAIALCRDRCMAMSRFITRFAEVVKLPDPTLSSVDLVPLCERCILLMQPLAVETGVKMKMCKEQDSCLVRCDAEQIEQVVINLLRNAIESFAQQNDLAVSATKTVLLCLDRHNLLVEDNGQPISDDVATRLFTPFFSTKPNGQGIGLVVIREVLTRHGWSFSLTTDADGRTRFRMAWP | not soluble
MSLTFKLRETIKINHKKVQRIMQWLGLKGKCKTQKYRSYQGEVGHIADNLLQRDFTATQPNEKWTTDITEFKCAEGKLYLSPIKDLFNNEIIAYDLARSPNFEQITRMMKQAVARLEGAKPILHSDQGWQYQMIGYQNILRENGIQQSMSRKGNCLYNSAMESFFGRLKTECYYGKRFETFEQLEKTIHEYIHYYNHERIQGKLKGLSPVNYRTQSLNEGHHHHHH | not soluble
MIMVSGCQQQKEETPFYYGTWDEGRAPGPTDGVKSATVTFTEDEVVETEVMEGRGEVQLPFMAYKVISQSTDGSIEIQYLGPYYPLKSTLKRGENGTLIWEQNGQRKTMTRIESKTGREEKDEKSKSLEHHHHHH | soluble
VGKEKMPVELYHAGEEITQLVREFATDKMKKAVQTFEKLERMENMDRVKEETLAHFEETLEDFEDFVGDIEEVLQDIIKEEVRKLIVHENVRPDNRKLEEIRP | not soluble
MAPVQGSYDYDLIVIGGGSAGLACAKEAVLNGARVACLDFVKPTPTLGTKWGVGGTCVNVGCIPKKLMHQASLLGEAVHEAAAYGWNVDDKIKPDWHKLVQSVQNHIKSVNWVTRVDLRDKKVEYINGLGSFVDSHTLLAKLKSGERTITAQTFVIAVGGRPRYPDIPGAVEYGITSDDLFSLDREPGKTLVVGAGYIGLECAGFLKGLGYEPTVMVRSIVLRGFDQQMAELVAASMEERGIPFLRKTVPLSVEKQDDGKLLVKYKNVETGEESEDVYDTVLWAIGRKGLVDDLNLPNAGVTVQKDKIPVDSQEATNVANIYAVGDIIYGKPELTPVAVLAGRLLARRLYGGSTQRMDYKDVATTVFTPLEYACVGLSEEDAVKQFGADEIEVFHGYYKPTEFFIPQKSVRYCYLKAVAERHGDQRVYGLHYIGPVAGEVIQGFAAALKSGLTINTLINTVGIHPTTAEEFTRLAITKRSGLDPTPAS | soluble
MVSENSDATNVETTALALKILVAGGFGVGKTTMVGAVSEIRPLRTEELLSEAGQSVDDTDGVDQKVTTTVAMDFGRITIRSGLSLYLFGTPGQDRFWFLWDELSQGALGAVVLADTRRLEDCFPAVDYFEHRHIPFVVAVNCFAGARTYGAHDVSRALDLDQGTPVVLCDARDRDSGKEVLIRLVEYAGRMHTARLLDSVGLEHHHHHH | not soluble
MAHHHHHHMANISPNSDGDSFVGADTAKQLSDIQKKLNDLKQRREELEEQRRRILGASDQSSSRPRSLRGPTQNRRRHSQPSQRTLPLRPPRPPISDHSIRIPNEKERQQTAQRTPYLEMKESMRRSWSRDSSLVMGSFLMEDNPRARTFTRERRFIPPPECNGIYFLGTEMELMIRNKNVAPSQRSGRRDNTPYRWNDIIDGVTPGPGAYTPLFSKVSKPSRRAQLF | not soluble
MAHHHHHHMNKNYPGRITSAPLAQQARGLSLRPGAPASFLDRAQPGGAGTGIGAQQSHHNNNLPRAPRAKPPTQLQTPAPAPPLPKEEAEEERSGAAEVAPSEVSYPEDHIYDVEDFIKLRKCQAPVPSEVMEYARAMWKEMPENMDDMENNSLRDNLFREQNASTMSKVMTDRKINNEVLGILGKVTASNLEKMKKELTDLPIRQSTKEEIDEV | soluble
